{
  "source": "patent EP4431529A1",
  "about": "(Sunshine Guojian Pharmaceutical (Shanghai) Co., Ltd., dated 2024)",
  "binders": {"B1": {"name": "anti-IL-17 monoclonal antibody 608 (antibody, human IgG1, kappa, V domains shown)", "VH": "EVQLVESGGGLVQPGGSLRLSCAASGFTFSSFDMSWGRQAPGKRLEWVAFMSSGGSTYYPDSVKGRFTISRDNSKNTLYLQMNSLRAEDTAVYYCARGERYGSYWGQGTLVTVSS", "VL": "DIQMTQSPSSLSASVGDRVTITCKASDHINNWLAWYQQKPGKAPKLLISGATSLETGVPSRFSGSGSGTDYTLTISSLQPEDFATYYCQQYWSTPFTFGSGTKLEIKR", "notes": "Humanized anti-human IL-17A monoclonal antibody from CN 201780033670.5; positive control"}},
  "key": {"IL-17A protein [1]": {"molecular_target": "T1, IL-17A protein (human, UniProt Q16552 24-155)", "T1 sequence (looked up)": "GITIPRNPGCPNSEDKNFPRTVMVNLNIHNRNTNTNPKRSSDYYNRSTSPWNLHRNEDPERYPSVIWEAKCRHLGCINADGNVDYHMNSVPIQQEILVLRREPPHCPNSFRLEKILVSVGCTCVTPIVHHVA", "assay": "cell-based or functional assay"}, "VEGF165": {"molecular_target": "T2, VEGF165 (UniProt P15692-4 27-191)", "T2 construct": "treated as one molecule; also called VEGF protein; VGEF", "T2 sequence (P15692 other isoform, or with tags, fused parts or gaps limits assumed)": "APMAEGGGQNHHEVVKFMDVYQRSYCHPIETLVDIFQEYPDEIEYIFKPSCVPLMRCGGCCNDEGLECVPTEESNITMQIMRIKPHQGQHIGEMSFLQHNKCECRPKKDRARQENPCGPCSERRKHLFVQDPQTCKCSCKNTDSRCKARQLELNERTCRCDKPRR", "assay": "ELISA, VEGF coated on the plate"}, "IL-17A protein [2]": {"molecular_target": "T1, IL-17A protein", "assay": "ELISA, IL-17A coated on the plate"}, "IL-17A protein [3]": {"molecular_target": "T1, IL-17A protein", "assay": "SPR, Biacore 8K, antibody captured on Protein A, IL-17A as analyte"}},
  "data": [
    {"binder": "B1", "values": [
      {"measurement": "IC50 of blocking IL-17A-induced IL-6 secretion from HeLa cells", "setting": "IL-17A protein [1]", "value": 0.877, "unit": "nM"},
      {"measurement": "binding result", "setting": "VEGF165", "value": "no binding (tested: 25 nM (highest concentration tested))"},
      {"measurement": "EC50", "setting": "IL-17A protein [2]", "value": 0.052, "unit": "nM"},
      {"measurement": "Kd", "setting": "IL-17A protein [3]", "value": 0.0164, "unit": "nM"},
      {"measurement": "koff", "setting": "IL-17A protein [3]", "value": "4e-05", "unit": "s⁻¹"},
      {"measurement": "kon", "setting": "IL-17A protein [3]", "value": "2.44e+06", "unit": "M⁻¹ s⁻¹"}
    ]}
  ]
}
